From PMC6363758, “Zinc regulates ERp44-dependent protein quality control in the early secretory pathway” (Nature Communications, 2019)

How the values were obtained:
[1] = biological target: T1, Ero1α Cys104/Cys131Cys166Ala mutant (recombinant) (UniProt Q96HE7 24-468, Cys104/Cys131Cys166Ala | Cys104/Cys131Cys166Ala | Cys104/Cys131Cys166Ala); assay: ITC; 420 µM Ero1α injected into 30 µM ERp44 WT, no Zn2+; 20 mM BisTris-HCl pH 6.2, 150 mM NaCl, 283 K; conditions: both partners purified
T1 construct: Ero1α with Cys104, Cys131 and Cys166 replaced by Ala; used in all the in vitro experiments
T1 sequence (looked up): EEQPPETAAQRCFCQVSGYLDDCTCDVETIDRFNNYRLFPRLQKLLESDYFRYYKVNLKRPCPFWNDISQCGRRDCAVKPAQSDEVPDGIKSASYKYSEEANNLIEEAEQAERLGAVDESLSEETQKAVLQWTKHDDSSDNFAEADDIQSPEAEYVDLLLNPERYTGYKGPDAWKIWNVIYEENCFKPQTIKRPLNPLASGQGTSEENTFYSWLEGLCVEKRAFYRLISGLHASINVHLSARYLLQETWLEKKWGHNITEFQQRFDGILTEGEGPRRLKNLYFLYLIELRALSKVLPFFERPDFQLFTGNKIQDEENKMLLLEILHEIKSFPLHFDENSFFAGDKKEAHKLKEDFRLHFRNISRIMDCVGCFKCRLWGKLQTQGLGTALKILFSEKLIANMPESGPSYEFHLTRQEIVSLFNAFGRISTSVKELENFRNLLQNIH

[2] = biological target: T1, Ero1α Cys104/Cys131Cys166Ala mutant …; assay: ITC; 200 µM ERp44 injected into 15 µM Ero1α and 15 µM ZnCl2; 20 mM BisTris-HCl pH 6.2, 150 mM NaCl, 283 K; conditions: both partners purified

Kd [1]: 1310 nM | Kd [2]: 220 nM
B1: ERp44 WT (recombinant) (natural protein)
chain: EITSLDTENIDEILNNADVALVNFYADWCRFSQMLHPIFEEASDVIKEEFPNENQVVFARVDCDQHSDIAQRYRISKYPTLKLFRNGMMMKREYRGQRSVKALADYIRQQKSDPIQEIRDLAEITTLDRSKRNIIGYFEQKDSDNYRVFERVANILHDDCAFLSAFGDVSKPERYSGDNIIYKPPGHSAPDMVYLGAMTNFDVTYNWIQDKCVPLVREITFENGEELTEEGLPFLILFHMKEDTESLEIFQNEVARQLISEKGTINFLHADCDKFRHPLLHIQKTPADCPVIAIDSFRHMYVFGDFKDVLIPGKLKQFVFDLHSGKLHREFHHGPDPTDTAPGEQAQDVASSPPESSFQKLAPSEYRYTLLRDRDEL
notes: ERp44, chaperone of the PDI family; Probably the mature protein without its signal peptide (surmise)
